According to the supplement of paper PMC9170038:

Tested on: MS2 coat protein
Test: apparent KD of MS2 coat protein; designed switch direction (-1 OFF switch, 1 ON switch): -1; higher = weaker reporter binding
Details: Eterna round: R98
Experimental: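 RNA-MaP: designed FMN/MS2 RNA switches (84 nt design region) are transcribed on-chip within common flanks and titrated with SNAP-549-labelled MS2 coat protein (about 1-3000 nM) in 100 mM Tris pH 7.5, 80 mM KCl, 4 mM MgCl2, without or with 200 uM FMN. Median apparent KD per design; activation ratio = KD,OFF / KD,ON.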

UCGAACGGAAACAAAGUCAAUAGACAUGAGGAUCACCCAUGUAAGGAUAUGCCUACUAAAAGUAGGCAGAAGGUACGCGUUCGA [Contusion 5 - Jieux - Exclusion NG 3]
apparent KD of MS2 coat protein (input ligand: FMN 200 uM): 27.2 nM
apparent KD of MS2 coat protein (input ligand: none): 18.3 nM

GUCAGGAAUGUAGGAUAUCGUCAGGAAUACUGGCGAGAAGGACAUGAGGAUCACCCAUGUAAAAUGAAAGAUAAUAAACCUGGC [Exclsuion NG 1/2-C1]
apparent KD of MS2 coat protein (input ligand: FMN 200 uM): 31.9 nM
apparent KD of MS2 coat protein (input ligand: none): 18.7 nM

AGACUCAGAUGGUGCCAGCUUGCACAUGAGGAUCACCCAUGUCAGGAUAUCUUCGCUCCGGGAGAAGAGAAGGGACAAGAAAUU [Anenan]
apparent KD of MS2 coat protein (input ligand: FMN 200 uM): 165 nM
apparent KD of MS2 coat protein (input ligand: none): 104 nM

CCGGGCCCGGGAGGAUAUACAUGAGGAUCACCCAUGUAUUCUCGGCCCGGCGAAAGCCGGGCCAUGUAGAAGGCCCGGGCCCGG [high melting point]
apparent KD of MS2 coat protein (input ligand: FMN 200 uM): 103 nM
apparent KD of MS2 coat protein (input ligand: none): 24.3 nM

CACCGUUACAGAGGAUAUGACACAUGAGGAUCACCCAUGUAAUAAAUGAGAAUUUCGAAUGUAACUCAGAAGGCUGGAAUCGGC [JieuxMod 1 - Jieux - Exclusion NG 2]
apparent KD of MS2 coat protein (input ligand: FMN 200 uM): 61.6 nM
apparent KD of MS2 coat protein (input ligand: none): 25.9 nM
